Experiment: soluble on expression in E. coli; label from the status in PepcDB or PDB records

Soluble on expression in E. coli, not soluble:
MGSDKIHHHHHHMDNPFARFAGTRTIQANLSLLEENYVPDSFPHRENQINEMVTILSSIMRGSRPSNIIVYGKTGTGKTSTTKYVTKMLVEAASNVSVVYVNCEIYDSPYSILVAIANSAGEEKIPELGWPIDRIYRETVERVEKTGKFFIIILDEMDRLIKKNGGDSLYVLLKLMTDVDSVRVSMIGITNDTTVLENIDARIKSRLNQESIVFPPYNASEIRDIISSRLDKVLGPGVVDDTAINLCAAIGAQEHGDARKAIDLMRIAIEIAIRENRNKITENEIYEARERYEMNVLREAISTLPLHSKIVLLSAVVTQEIEPNSVITGEIYENYRRICDDLGFSPLSPRRISDLLTELADYGLLVMDDRNMGKYGRTRSFSVVHQAETIKKYLLEDENLSMFKSSKMPKQTRFDT
MGSDKIHHHHHHMDPRLLPLLSCPRHPTVTLTVEQVERVVNGAIVSGRLRCPVCATTYLIKDGILDMIGQHRPTSAAQVVNEVPVAAWAYERTWRPFALSLLSGEQFPLTRELKLITGLAGAERGGLMVDVGCSNGLYARALEHVRRQRGAGGFVVGIDLSMAMLQEAQRRARHEGLSISFIRASAQAMPFADGTVDALVMGGSLNEIGDIPAALSEWRRLLSPQGRGVMMSLVAASTPIGQGIQQLLASGGLQFPSLAELNHYFTAAGLRLRAQWQYGIVVFSVLQ
MGSDKIHHHHHHMDRLQLLEYWLKALYPDQPCTLSPASADASFRRYFRASLPGKTLIVMDAPPQQEDCRPFLHAASIFSRASVHVPAIVAQDLNQGFLLLSDLGTTTYLQALTAAPENANRLYQDAIDALIKIQCASQKNIFPEYDRILLSRELELFPDWYMTRHLHAPPDDDQKNTLKTVFNLILANNLAQPQVFVHRDYHSRNLMVSTPNPGIIDFQDAVLGPITYDLVSLFKDAYIQWEEAQILDWMIRYWEKARHAGLPVATDFSIFYRDFEWMGVQRHLKVLGIFARLCYRDNKPTYLQDMPAIMQYLRQTCERYSELHPLSRLLDRLEDRQAETGYTF
MGSDKIHHHHHHMDSYFLGVSLESLKSLPRQTNHLRLGLAMWSHYHWQDSVYGSTTKQAERLARYATIFNTVEGNTSFYATPNAQTMMNWLRATPDDFRFTFKLPQTITHQKQLQHCQQELLQFFQVMSPLAEKTGLWKIQLPAHFGPENLPALAQFLNQVPQGLTYGVEVRHAAFFAKGEAERALNRLLMDKQVNRIIMDSRPLFALPPANEAIIDTHKKKPRVPVHAIATANTPVVRFIGQPDDACSCTTRAARR
MGSDKIHHHHHHMDTDLLKTFLEVSRTRHFGKAAENLYLTRSAVSFRIKQLENILGLELFERLRNNIQPTPAGERMLGHAEAVLNAWERAKQDIILNQQHSAQLALSAGDNIWDAFLQGFLQPLHLGLEGVALRTDVLPATVMTRQLIERTLDIAITFDPPKLDGVILVKLAEVKLYLVSKQAGVKLTQTPTLPYIKVDWGTAFNITHAQDFTMLPLPVLHTSSARMALDFILNNGGCAFLPEALIKPYLDNGSLYVVDDAKCIHRHVYAAYWAENERLAYIEQAISILTTDKRTE
MGSDKIHHHHHHMDTKQTFLEDLKSRDNIKLSLMVMKIIFRETDKLICILADRTGEIKASVPLKDGDIKQGMVIQINGSKNVNLEVKSYKIIRDYNISDYLPTVKRPIEDIMNEIELYTNKYVLSKEGRALNDYFFKDEEFLEKFKKGIGGVSMHHNYIGGLAEHTLNVMKITAKLSEKYKCRRMEVAVLAAKLHDIGKVYEYDCNGPFKYTMRGQMEGHIVIGVELVDRAVRENLNLYPEDFVNRIKGCIVQHHGKLEFGSPREMNMEESFIINYADSIDATMNKISQLKEKTEPDTWSEFDRRIERKLYL
MGSDKIHHHHHHMEAIQVASVKDNFVKTLEKIRKKHGVDIIALFAIRQSLAIHVINSADNPVSFSAGTIFNLTLTPLVEEFLFNVKTFENHPQKTRFALVENVQWELYIPVVFKEFPTGFVYVASKKKRDAEKTEGIIRDLQDFLKAHGLEYYFLEYSVVLDQLLTTVAILIDRLFSRVSRYTLNHIYNVAFWAEEIGKIVGLDEKRLAKLYLAGLLHDIGKVYIDERILNKEGRLTLQEYQEMKKHVDYSYNMVKDLMIWDIEDDVALWVVQHHEKFDGSGYPFGLKEEEITPEGRILKIADTLDAMLSPRSYRNPFPLDDVIKEIERLRGKDFDPLLADLTVDLLREKKESLGLFEGRILPATLIAGEGIHEGILRKNDGYHVFISDYV
MGSDKIHHHHHHMECTSYLVDTFDQLPPINEESLADIDNDLFSGLYYGGVDTPTTRQLSQRVADLEKGKFAVLTPSGQSAFNLLLTTFVKPGDHVLAGDTIVYSTRWLLNHFENIGVKIEYFTPSEAATLKNKLTLKTKLIIFENPGAFTYEVMDISAIVESRHDHPALIVADNTWAASLFHHPLSLGADISLISMSKYHGAVEGISLGALITKRKDLYVNLKTTSALTGNHVSSHACSAAIRSISTLGARLSFQMSTTRKVLRSLKPLPLLKQAIHPILQNTELHLQNSMIYGFNSLFTAEFSCSRNELISRLNRLNLIKIGYGWGGTTSLVNLIDTHDMPSAKRLGINSECARIYLGLEDPDELTRDLTNAFTQ
MGSDKIHHHHHHMECVFGIDVSKENANVAVLVDNVVIKQFKIGLDRLGFSLLSDELNSFNAPLIIYEATAMYSRRLRAFLQRDGWKYTELNPLAAKKVMEEFRHTKTDALDAVGLARAMIKNHFRPTYQESPVYTELHDLERTYQQFNKDIVTNKNRLHRALQLTFPEIEHFMSSTDGVLYWHIVQRFPHPAIVLSHEENELTEIILTETSKKIGLKRAMKLANRLLALAQNSAPAKEPQSHAVRAVIALAKEVERINQLKAQIIVEMTTLGENLSEVPLLVSIPGIGIKTALCLIAELGDVRRFHSANAINAYIGIDLIRYESGQYEAKMHIRKRGNPYVRKILYRAILNIISVSQYQPTLISANYKRKKQSAQSHGTKKIAIAAMSQFNRLMHHLILNNELYDSTTFMPE
MGSDKIHHHHHHMEDNDWKLLKIIEISMKNHEWVPIQDLRRKTGFHEKEIVFRLGRLNKFKFTNKSNYGYRLSHWGYDALAMNAFIKKELIAGIGGKVGVGKEGDVYHVLLTNHREAVLKFHQLGRTCFSMGKRYREYLANKRHISWLYASRLTAAREFEVLNMLFPVVKVPEPIEQNRHAIIMGKLHGEELKRVNLLEINVDPEEFFWKLMVEVKKTYKLGIIHGDLSEFNILIDSEGDFVIIDWPQAIEVGKKGKLDKLPFEEVEYDEEFYLKRDIENVVRYFKKYGIDKDIDKLYNYVIGDITSENI
MGSDKIHHHHHHMEEYIRRILTLGRKRLEKFALKGGKPLPERPLIVKLMEEIRGFLGSGENRVILLYGLRGVGKTTMLAQLYLKLIGEVSGERILYASVDEIKMLGYRLKDVFESYEHIIGERLEELREPTIFLLDEVHYDEEWDLALKVAYDRARNLMIVATGSSAIELKLSTDLARRAKRFHITPLTFTEYLLLKGIRVNEEVKKVLKRLLLAGEVEGIEEEIRKTFLTFDPIEVERYLLYGSLPLALSSREPLEETYSIVERIIRWDLAKMGFSQEVLEKAFLLMLMLASGEALNYDRLTSRLGISRPVLAKLLSAFENLEVIFPVRAYGSLGKAIRKTPKYKFLAPVIRTSILNHFGLLEVNEKILGNLLEDVVALYLYIIARELSGSVTYDAEKGGADFILTTPIGRIVLEVGWGKKGKEQVKRTMKKIGAERGIIIHGGDFREKNGVIWLPKEWFLLML
MGSDKIHHHHHHMEFPGVKALDDVHFSVKRGEIHALVGANGAGKSTLMKVLAGAYASYEGTILFDGVPLAIDSPNAAKRAGIEIVYQEVDTALVDYLTVAENICLDMLASGQLKGVIRRRRYEEIAERALQKLKASIDVRQRVSELRLAEKQLVLIARALVQESRFLILDEPTAPLSGRETEQLFRIIRELAEKEHLGVIFISHRLQELFEICESISVMRDGKMVSRQLLAGQTKETVVEQMLGRRLQKSSREARPAGAPSLELDRITVAGQLDEISLTVRAGEVIGIAGLVGAGKTELCKTIFGSIPVTSGLMRLAGETRRIRSAYDAVRLGIGLVPEERRKEGILVADPIEQNMTAASLKQFVNRFGFVEKKKERAAANRIVQQLSIKVSDTRQRAAELSGGNQQKVAIGKWLLADASVLVLDEPTKGVDVGAKAEIFQVIDQLAAEQKAVIYASSELDELLAVTDRIYVMYDGQIVFEATTSETTEEQLLWYATGGQQHE
MGSDKIHHHHHHMEFSNAERDVFLIKIEKMIDRGALMSRYSRASDPDIRSVYEKEFKTGAKSGEEFYRRIFLEYGDESIAELTTAQMGIQNVSNVASKIIEEIRIGLSYLEKSTRYVRYDKKVDGRYLYISPERIGISGDDAKDYVQLCDNLFEFYSKALPQVEDYLRHKFPQDKLVFQNAGGKTLTEMDQNEKKIAERSYINAVRSRALDDVRYILPASTLTNIGISGNGRALIHLIQKLMEYEIPETTKLAKDIYDELKPELPQLIDDALSGHGLEIINFKKNLMGLFPYDLTGNFERIRLLSYGEEDKELRKVASLIEYPFHGDAASLYSRSSESYVKYMKELIESIRSLRANRRMKPGRAFESVNYVFELNLNYGSFRDLQRHRFLGIIRKPLTAAYGYDTPPVISAIDELKTQYDELMANSSSFYQRLREKYGPWISQYVVPFAFKYPITFSTNLSEVTYFVELRSTAQAHFDLRDIAVSMYREVSKVHPTLSRIIKFVDTADYPLGRLSAEFRKESKKAGI
MGSDKIHHHHHHMEHLLEVNNLSVSFKVEEGEVQAVRNVSFNLKKGETLAIVGESGCGKSVLCKSLMRILPYNGYIKNGEVLLKSSDLVKKSEKEMEDIRGKNISMIFQDPMTSLNPTISIGKQIAEAVIIHQGISKSEAKKRAIELIELVGIDNPEKRFKQFPHHFSGGMRQRIVIAIALACNPDVLIADEPTTALDVTIQAQIIDLIKDLQHKIGLSIIFITHDLGVVATIADRIAVMYAGKIVEIGTVEDIFYDPRHPYTWGLLGSLPTLDSQDDYLYNIPGMPPNLLNPPKGDAFAIRNKNALKIDYEKEPPMFKINDTHSAATWLLHPDAPEVDVPVRVNCGRVISNE
MGSDKIHHHHHHMEIKETYDFSSIVDLWNKNIGTVYPMNLELFKQNYINDRQRKKIMGAFNGEILIGFVIYKQWTYKSGSLKPNHKIGYINSIIVDINFRHQGIGTKLLDAAEEELINSGVKILRCGSDTYHFFPGIPLECLPSEEFFLVRGYKMQDYFYDLIGDVSKVDFKKPSIKDGFKVNVMKPEDRKGLFEFLEKSFSGRWLEEFIEFFQVGMKERDIVLIKYKTSVIGFSHIYDNKSSFIGPPIYWKALLGHNYGGLGPIGIDKTYRKQGLGRLLLYESLQILKKREVKKMVIDWTEKDIINFYGRFNFMPWKAYRKATKEVKDGKG
MGSDKIHHHHHHMEILSLGEKIKARRKELNMTLKDLAGDRITPGQISLVESGKSNPSMDLLEYLAGALNTSVEYLMESEETQAEKICVYYENTAEAYMLNDELMEAEQYLEKAMYYAENYKISYRKARTLYLYGCINMNKNELGVAQQFFLSSNVLFIKLNHYEDIINTFINLGKITLNLKAYNSSCSYFEQAERVSRDNDIGNDFLIGEIYYYMSLVYFKMNNSNKTIKYCLMAKEKFAELENKKEYARTLLILSKEYSKSGDVDNAIKYSKKALKAFKENDNMFAVADIENELGKLFYEFENIEESFIHLNKAKEIRKKTKGHEFIETLCNICENYIKLKDTENSQKVLNEIKENIDGNNVFDILKYYMLKYRISILNRSLKEAENILLRALQYAENMELEKEAAEFSVIIGKYYIDNGDDVEAAKYLNSGIEKFKKIGVLKDL
